According to paper PMC12056208:
Like-named read-outs stand apart in the source and are kept apart here.

Key:
[1] = target: T1, Ku70;Ku80;DNA polymerase mu (Homo sapiens?;Homo sapiens?;Homo …, UniProt P12956;P13010;Q9NP87 1-609;1-732;1-494, ||); conditions: protein: recombinant;recombinant;recombinant; copies: 1;1;1; two duplexes: S3/S6 13 bp with 3' overhang GC on S3; S5/S4 11 bp with 3' overhang AGC on S5; GC microhomology between overhangs
[2] = target: Ku70;Ku80 (Homo sapiens?;Homo sapiens?, UniProt P12956;P13010 1-609;1-732, |); conditions: protein: recombinant;recombinant; copies: 1;1; label: biotin; fork: 35 bp duplex (1:21-55 with 2:1-35), 5' tail 20 nt on strand 1, 3' tail 7 nt on strand 2; the tail ends (1:1-7, 2:36-42) are also complementary
Sequence of Ku70;Ku80 (P12956 whole entry, chain 1 of 2): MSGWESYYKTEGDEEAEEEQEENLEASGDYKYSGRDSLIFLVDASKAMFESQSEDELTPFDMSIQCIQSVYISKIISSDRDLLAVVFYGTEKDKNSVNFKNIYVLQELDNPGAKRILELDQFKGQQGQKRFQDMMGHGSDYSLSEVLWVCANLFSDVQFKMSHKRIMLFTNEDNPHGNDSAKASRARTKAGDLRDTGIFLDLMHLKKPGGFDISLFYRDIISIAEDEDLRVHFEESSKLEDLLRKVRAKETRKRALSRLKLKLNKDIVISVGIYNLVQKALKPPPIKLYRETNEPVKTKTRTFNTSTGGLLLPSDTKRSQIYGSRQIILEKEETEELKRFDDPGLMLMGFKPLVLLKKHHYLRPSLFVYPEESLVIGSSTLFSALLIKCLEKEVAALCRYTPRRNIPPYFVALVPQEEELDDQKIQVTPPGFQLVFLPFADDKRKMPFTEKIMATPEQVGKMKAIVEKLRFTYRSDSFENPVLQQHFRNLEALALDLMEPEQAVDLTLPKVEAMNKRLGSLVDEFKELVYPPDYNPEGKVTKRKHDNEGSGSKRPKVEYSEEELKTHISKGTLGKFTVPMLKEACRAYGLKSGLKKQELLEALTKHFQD
Sequence of Ku70;Ku80 (P13010 whole entry, chain 2 of 2): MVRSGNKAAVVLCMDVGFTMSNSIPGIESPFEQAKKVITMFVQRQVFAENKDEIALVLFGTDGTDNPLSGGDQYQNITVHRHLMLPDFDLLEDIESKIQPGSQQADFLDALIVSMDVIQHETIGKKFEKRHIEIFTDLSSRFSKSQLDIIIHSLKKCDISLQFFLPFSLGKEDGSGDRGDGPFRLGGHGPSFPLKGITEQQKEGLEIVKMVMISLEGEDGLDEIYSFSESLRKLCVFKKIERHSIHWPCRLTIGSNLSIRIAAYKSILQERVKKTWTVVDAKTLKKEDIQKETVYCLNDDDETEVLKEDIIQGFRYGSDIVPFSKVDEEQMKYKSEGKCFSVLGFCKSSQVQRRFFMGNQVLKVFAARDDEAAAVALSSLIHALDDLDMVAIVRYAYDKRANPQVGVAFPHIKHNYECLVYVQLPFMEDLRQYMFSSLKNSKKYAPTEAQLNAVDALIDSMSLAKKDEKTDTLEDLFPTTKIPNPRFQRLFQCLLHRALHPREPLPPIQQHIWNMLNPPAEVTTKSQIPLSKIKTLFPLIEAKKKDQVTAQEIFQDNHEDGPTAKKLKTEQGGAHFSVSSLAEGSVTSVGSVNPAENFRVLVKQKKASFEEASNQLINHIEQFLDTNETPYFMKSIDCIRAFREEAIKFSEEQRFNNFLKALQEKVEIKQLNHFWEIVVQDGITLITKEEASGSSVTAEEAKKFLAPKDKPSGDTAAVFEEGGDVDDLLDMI

[3] = target: T1, Ku70;Ku80;DNA polymerase mu; conditions: protein: recombinant;recombinant;recombinant; copies: 1;1;1; label: biotin; fork: 35 bp duplex (1:21-55 with 2:1-35), 5' tail 20 nt on strand 1, 3' tail 7 nt on strand 2; the tail ends (1:1-7, 2:36-42) are also complementary
[4] = target: Ku70;Ku80;DNA polymerase lambda (Homo sapiens?;Homo sapiens?;Homo …, UniProt P12956;P13010;Q9UGP5 1-609;1-732;1-575, ||); conditions: protein: recombinant;recombinant;recombinant; copies: 1;1;1; label: biotin; fork: 35 bp duplex (1:21-55 with 2:1-35), 5' tail 20 nt on strand 1, 3' tail 7 nt on strand 2; the tail ends (1:1-7, 2:36-42) are also complementary
Sequence of Ku70;Ku80;DNA polymerase lambda (P12956 whole entry, chain 1 of 3): as the sequence (P12956 whole entry, chain 1 of 2) above
Sequence of Ku70;Ku80;DNA polymerase lambda (P13010 whole entry, chain 2 of 3): as the sequence (P13010 whole entry, chain 2 of 2) above
Sequence of Ku70;Ku80;DNA polymerase lambda (Q9UGP5 whole entry, chain 3 of 3): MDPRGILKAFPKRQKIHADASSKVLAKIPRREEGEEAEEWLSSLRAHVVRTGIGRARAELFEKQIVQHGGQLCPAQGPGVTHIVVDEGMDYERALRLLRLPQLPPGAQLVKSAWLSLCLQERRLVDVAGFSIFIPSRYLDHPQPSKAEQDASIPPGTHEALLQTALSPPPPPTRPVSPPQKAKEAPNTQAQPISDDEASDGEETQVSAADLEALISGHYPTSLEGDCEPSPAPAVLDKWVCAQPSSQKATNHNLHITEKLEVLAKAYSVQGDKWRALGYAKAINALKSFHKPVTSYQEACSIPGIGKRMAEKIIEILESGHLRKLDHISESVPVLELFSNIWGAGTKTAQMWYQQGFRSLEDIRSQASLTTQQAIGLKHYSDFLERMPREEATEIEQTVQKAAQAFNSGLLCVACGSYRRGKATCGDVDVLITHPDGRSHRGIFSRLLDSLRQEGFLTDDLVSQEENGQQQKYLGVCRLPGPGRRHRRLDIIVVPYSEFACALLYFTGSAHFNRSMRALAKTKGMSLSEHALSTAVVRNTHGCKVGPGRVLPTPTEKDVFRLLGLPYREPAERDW

T1 sequence (P12956 whole entry, chain 1 of 3): as the sequence (P12956 whole entry, chain 1 of 2) above
T1 sequence (P13010 whole entry, chain 2 of 3): as the sequence (P13010 whole entry, chain 2 of 2) above
T1 sequence (Q9NP87 whole entry, chain 3 of 3): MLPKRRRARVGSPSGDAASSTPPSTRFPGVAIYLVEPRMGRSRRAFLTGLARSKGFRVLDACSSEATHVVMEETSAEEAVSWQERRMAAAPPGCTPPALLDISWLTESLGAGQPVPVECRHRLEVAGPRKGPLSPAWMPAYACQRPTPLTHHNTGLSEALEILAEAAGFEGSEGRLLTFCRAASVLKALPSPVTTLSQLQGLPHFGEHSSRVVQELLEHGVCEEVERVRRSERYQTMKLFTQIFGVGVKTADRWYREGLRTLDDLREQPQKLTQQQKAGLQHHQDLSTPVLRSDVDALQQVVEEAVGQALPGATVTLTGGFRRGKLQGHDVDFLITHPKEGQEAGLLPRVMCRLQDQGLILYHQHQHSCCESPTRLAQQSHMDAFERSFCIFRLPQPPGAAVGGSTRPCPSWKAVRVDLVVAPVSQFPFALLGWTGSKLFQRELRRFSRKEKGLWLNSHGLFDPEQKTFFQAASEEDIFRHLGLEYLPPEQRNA

B1: Microhomology DNA for Pol mu (dsDNA)
DNA 1: GGTGCAGCACAGTGC
DNA 2: ACTGTGCTGCACC
DNA 3: GACTGCACGGCAGC
DNA 4: GCCGTGCAGTC
- binding result [1]: binds

B2: Y-shaped 42-55 DNA (dsDNA)
DNA 1: CGCGCCCAGCTTTCCCAGCTAATAAACTAAAAACTATTATTATGGCCGCACGCGT
DNA 2: ACGCGTGCGGCCATAATAATAGTTTTTAGTTTATTGGGCGCG
modifications: 5' biotin on strand 1
- binding result [2]: binds
- binding result [3]: binds
- binding result [4]: binds
